Results: the nanobody polyreactivity screen of Harvey et al. (2022)

Test: yeast display, Sf9 membrane polyspecificity reagent, FACS + sequencing; frameworks hold sequencing errors
How it was run: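 Genes from sorted yeast were amplified by colony PCR, read by MiSeq 2 × 250 sequencing and filtered on CDR length. These cells carried a synthetic nanobody library in Saccharomyces cerevisiae BJ5465 and were sorted by FACS into low and high (top ~1%) gates on anti-HA and streptavidin fluorescence. Polyreactivity is labelled according to the gate of origin.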

Sequence	polyreactivity (PSR sort gate)
QVQLVESCGDLVQAGASLRLSCAASGRIFVYYAMGWYRQAPGKERELVALITSLGSTNYSDSVKGRFTISRDNGKNCVYLQMNSLKPEDTAVYYCAAEWEYYGFDYWGQGTQVTVSS	low polyreactivity
QVQLVESCGGIVQAGGSLRLSCAASGRIFGENAMGWYRQEPGKEREFVAVISISDASTYYADSVKGRFTISRDNAKNTVFFQMNSLKPEDTAVYYCAAEGPDSYSMDYWGQGTQVTVSS	low polyreactivity
QVQLVESCGGLLQAGGSLPLSCPASGSISSYYAMGWYRQAPGKERELVASITSGASTNYADSVKGRFTISRDNAKNTVYLQMNSLKPEDTAVYYCAAYVVTYYYGTGYYSYDYWGQGSQVTVSS	low polyreactivity
QVQLVESCGGLVKAGGSLRLSCDASGSTFYNNAMGWYRQAPGKERELVAVITSGGGSTYYADSVKGRFTISRDNAKNTVYLQMNSLKPEDTAVYYCAAKRPFYKYLWLDVRGNYWGQGTQVTVSS	low polyreactivity
QVQLVESCGGLVQAGCSLRLSCAASGRTFAYNAMGWYRQAPGKERELVADITSGGSTYYADSVKGRFTISRDNAKNTVYLQMNSLKPEDTAVYYCAAYPQFWYWDYNYWGQGTQVTVSS	high polyreactivity
QVQLVESCGGLVQAGCSLRLSCAASGRTFVWYAMGWNRQAPGKERELVAAITLSGGSTYYADSVKGRFTISRDNAKNTVFLQMNSLIPEDTAVYYCAADGTYRPEDYDYWGQGTQVTVSS	low polyreactivity
QVQLVESCGGLVQAGGSLRISCAASGLTIRYYAMGWYRHAPWKERELVAAISWSGGSTYYADSVKGRFTISRDNAKNTVYLLMNILKPEDTAVYYCNTVGRSSSLSVFLIGYGYWGQGTQVNVSS	high polyreactivity
QVQLVESCGGLVQAGGSLRLICAASGRTFYHNAMGWYRQAPGKERELVATINSGGSTYAESVKGRFTISRDNAKNTVYFQMNSLKPEDTAVYYCAATFWSRSRFYYRYDYWGQGTQVTVSS	high polyreactivity
QVQLVESCGGLVQAGGSLRLSCAASGFIFFANTMGWYRQAPGKERELVAAITSDGSTYYADSVKGRFTISRDNAKNTVYLQMNSLKPEDTAVYYCNAQSNYADLAYWNDYWGQGTKVTVSS	low polyreactivity
QVQLVESCGGLVQAGGSLRLSCAASGFIFWCYTMGWYIQAPGKERELVAAITGSGGSTYYADSVKGRFTISRDNAKNTVNFQMNSLKPEDTAVYYCNAVSAYKWEYYYWGQGTLVTVSS	high polyreactivity
QVQLVESCGGLVQAGGSLRLSCAASGGTFGPNAMGWYRQAPGKERELVARISTSGGSTTYYADSVKGRFTISRDNAKNTFYLHMNSLKPEDTAVYYCAADYKPYYRRRYDYWGQGTQVTVSS	low polyreactivity
QVQLVESCGGLVQAGGSLRLSCAASGIIFEGNTLGWYRQAPGKEREFVAAISRNGGSTSYADSVKGRFTISRDNAKNTVYLQINSLKPEDTAVYYCAADVESFWGWRYEYWGQGTQVTVSS	low polyreactivity
QVQLVESCGGLVQAGGSLRLSCAASGITFFGYDMGWYRQAPWKEWELVAAITSTGRTYYADSVKGRFTISRDNAKKTDYLQMNSLTPEDTAVYYCNAARYPRSWYYKLDYWGQGTQVTVSS	high polyreactivity
QVQLVESCGGLVQAGGSLRLSCAASGLIFPVYAMGWYRQAPGKEREFVASIWRGGTTYYADSVKGRFTISRDNEKNTVYLQMNSLKPEDTAVYYCAARDYPRGLVFPFTKYDYWGQGTQVTVSS	high polyreactivity
QVQLVESCGGLVQAGGSLRLSCAASGLTFYQNDMGWYRQAPGKERELVAAITLSGDITYYADSVKGRFTISRDNAKNTVYLQMNSLKPEDTAVYYCAADGYLLYVQHPNGRRYDYWGQGTQVTVSS	low polyreactivity
QVQLVESCGGLVQAGGSLRLSCAASGRIFSYNPMGWYRQAPGKERELVATITSGDSTNYADSVKGRFTISRDNSKNSVYLQMNSLKQEDTAVYYCATDIYGLPVDYWGQGTQVSVSS	low polyreactivity
QVQLVESCGGLVQAGGSLRLSCAASGRTFGRNAMGWYRQAPGEREMVAVISRGGSTYYADSVKGRFTISRDNAKNTVYLQMNSLKPEDTAVYYCNADTVYTRTAPYDYWGQGTQVTVSS	low polyreactivity
QVQLVESCGGLVQAGGSLRLSCAASGRTFGYYAMGWYRQAPGKEREFVAAITAGGGSTYYADSVKGRFTISRDNAKNTVYLQMNSLKPEDTAVYYCAKRDYWGQGTQVTVSS	high polyreactivity
QVQLVESCGGLVQAGGSLRLSCAASGRTFVTYAMGWYRQAPGKERELVAAISASGGSTYYADSVKGRFTISRDNAKNTVYFQMNSLKPEDTAVYYCAKTYFLATPYGYWGQGTQVTVSS	low polyreactivity
QVQLVESCGGLVQAGGSLRLSCAASGSIFGYNDMGWYRQAPGKERELVATLTWGGGRTRYADSVKGRFTISRDNAKNTVYLQMNSLIPEDTAVDYCAADKRSYSYVRPPRNHEDYWGQGTQVTVSS	low polyreactivity
QVQLVESCGGLVQAGGSLRLSCAASGSISFYAMGWYRQAPGQERELVAAITTSGGRTYYADSVKGRFTISRDNAKNTVYLQMNSLKPEDTAVYYCAQQGWYYSNRDGYRWYDYWGQGTQVTVSS	high polyreactivity
QVQLVESCGGLVQAGGSLRLSCAASGSISYYYAMGWYRQAPGKERELVAAITRTGTTNYADSVKGRFTISRDNAKNTVYLQMNSLKPEDTAVYYCAKRSTGRLQSYNYWGQGNQVTVSS	low polyreactivity
QVQLVESCGGLVQAGGSLRLSCAASGSTFLVNAMGWYRPAPGKERELVAASSRGGGSTYYADSVKGRFTISRDKAKNTVYLQMNSLKPEDTAVYYCNARKWTIYGAHYYWGQGTQVTVSS	high polyreactivity
QVQLVESCGGLVQAGGSLRLSCAASGSTLATYAMGWYRQAPWKERELDAVITRGGRTYYADSVKGRFTISRDNAKNTVYLQMNSLKPEDTAVFYCNATRAGENPDGGDEYWGQGTQVTVSS	high polyreactivity
QVQLVESCGGLVQAGGSLRLSCAASRSTFVKYTMGWYRQAPGKERELVATITWSGGSTYYADSVKGRFTISRDNAKNTVYLQLMSLKPEDTAVYYGAIDSGVYRTYQGRWYYYTDFYWGQGTQVTVSS	low polyreactivity
QVQLVESCGGLVQAGGSLRLSCAATGRIFAGYVMGWYRPAHGKERELVAAISWRGGRTYYADSVKGRFTISRDNAKNTVYLQMISLKPEDTAVYYCNAPYAVGNPADDYWGQGTQVTVSS	high polyreactivity
QVQLVESCGGLVQAGGSLRLSCDASGSIFIKKTMGWYRQAPGKEREMVAAISWSGGSTYYADSVKGRFTISRDNAKNTVYLQMNSLKPEDTAVYYCNAYYFWRTWFDTYDYWGQGTQVTVSS	high polyreactivity
QVQLVESCGGLVQAGGSLRLSSAASGSIFEYNAMGWYRQEPGKERELVGAITSTDSTYADSVKGRFTISRDNAKNTVYLQMNSLKPEDTAVYYCAAEDVIYYLTGQWREYDYWGQGTQVTVSS	low polyreactivity
QVQLVESCVVLVQAGGSLRLSCAASGSIFGYYAMGWYRQAPGKERELVAAISDGGTITYYADSVKGRFTISRDHAKNTVYLQMNSLKPEVTAVYYCAARSPPRYYEHRFYYWGQGTQVTVSS	high polyreactivity
QVQLVESGAGIVQAGGSLRLSCAASGRTFLDYTMGWYRQAPGKERELVAAIRTSAGSTYYADSVKGRFTISRDNAKKTVYLQLNSLKPEDTAVYYCAAVYYVHYYYSYDYWGQGTQVTVSS	low polyreactivity
